Literature values as cited in PMC4496705.

What was measured:
SKIP (Homo sapiens) = SKIP (Homo sapiens) (UniProt Q13573); assay: SPR
[1] = target: hPrp4 peptide (Homo sapiens) (UniProt O43172); assay: ITC
Sequence of UniProt O43172 (O43172 whole entry): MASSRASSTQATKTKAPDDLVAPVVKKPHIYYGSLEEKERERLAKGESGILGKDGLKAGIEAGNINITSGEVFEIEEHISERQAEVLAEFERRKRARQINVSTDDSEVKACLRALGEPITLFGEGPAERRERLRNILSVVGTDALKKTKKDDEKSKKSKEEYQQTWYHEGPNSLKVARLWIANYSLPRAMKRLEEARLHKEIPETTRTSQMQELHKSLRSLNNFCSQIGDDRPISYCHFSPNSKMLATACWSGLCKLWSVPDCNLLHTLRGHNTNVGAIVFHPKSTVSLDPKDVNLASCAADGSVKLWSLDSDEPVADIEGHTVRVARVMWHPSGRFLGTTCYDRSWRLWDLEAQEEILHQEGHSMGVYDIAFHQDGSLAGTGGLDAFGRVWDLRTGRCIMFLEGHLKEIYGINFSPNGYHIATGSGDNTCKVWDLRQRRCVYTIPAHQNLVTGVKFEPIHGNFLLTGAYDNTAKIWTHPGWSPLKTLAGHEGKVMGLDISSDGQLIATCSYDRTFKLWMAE

Sequence of UniProt Q13573 (Q13573 2-536): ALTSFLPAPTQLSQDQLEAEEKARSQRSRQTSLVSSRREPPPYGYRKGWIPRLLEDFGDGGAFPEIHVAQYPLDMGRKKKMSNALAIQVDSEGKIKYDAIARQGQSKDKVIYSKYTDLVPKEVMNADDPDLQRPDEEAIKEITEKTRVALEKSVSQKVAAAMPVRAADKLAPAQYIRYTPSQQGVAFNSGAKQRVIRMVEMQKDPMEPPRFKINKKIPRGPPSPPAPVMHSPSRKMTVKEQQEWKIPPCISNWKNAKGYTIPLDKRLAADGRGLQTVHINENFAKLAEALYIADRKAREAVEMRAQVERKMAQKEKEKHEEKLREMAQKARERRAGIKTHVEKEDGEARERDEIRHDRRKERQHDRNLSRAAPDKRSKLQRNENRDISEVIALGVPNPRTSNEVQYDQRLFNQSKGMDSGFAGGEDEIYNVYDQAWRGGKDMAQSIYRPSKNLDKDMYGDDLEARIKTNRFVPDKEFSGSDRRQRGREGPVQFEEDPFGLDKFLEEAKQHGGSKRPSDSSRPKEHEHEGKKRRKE

Kd (SKIP (Homo sapiens)) | Kd [1] | Substance
125 nM | – | PPIL1 (from UniProt Q9Y3C6)
– | 1970 nM | PPIH (from UniProt O43447)
